In assay [1] the target is T1, recombinant 6x-His-tagged p32 protein (p32/p33/gC1qR/HABP1) (UniProt Q07021 74-282).
T1 construct: not shown: 6x-His tag
T1 sequence (looked up): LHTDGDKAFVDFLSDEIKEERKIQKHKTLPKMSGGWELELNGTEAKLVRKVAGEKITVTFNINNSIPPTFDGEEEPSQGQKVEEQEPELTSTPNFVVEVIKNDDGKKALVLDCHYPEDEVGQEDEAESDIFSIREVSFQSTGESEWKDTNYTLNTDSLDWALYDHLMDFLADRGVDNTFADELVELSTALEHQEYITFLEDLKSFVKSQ
The assay can be described thus: fluorescence polarization, FAM-labeled peptide constant, p32 titrated (FIG. 2A). The protocol:
FIGS. 2A-2D are graphs showing FP- and phage binding-based validation of p32 binding peptides and hit compounds. […] Measurements were performed with PheraStar FS plate reader (BMG Labtech, Ortenberg, Germany) on 384-well plate. […] (C) Assessment of hit compound binding to a non-target secondary protein, NRP-1, to determine the specificity of the hit compounds in FP assay. A known NRP-1 binding peptide, RPARPAR (SEQ ID NO:18), was used as a control. (D) Effect of the hit compounds on the TT1 phage binding to p32 protein. TT1 phage binding to p32 in the presence of 100 μM hit compounds was determined in ELISA-type of binding assay. Each data point presents average±S.D., n=4.
The assay was initially set up in 20 μl well volume in 384 well plate (Corning Life Sciences), and measurements were carried out using PheraStar FS plate reader (BMG LABTECH, Ortenberg, Germany) in quadruplicate. […] Optimal concentration of fluorescein (FAM) labeled-peptides for the assay was determined by measuring the limit of detection (LOD), signal-to-background ratio (S/B), and stability of mP value over series of peptide concentrations. In the binding assay, the concentration of FAM-peptide was kept constant, and the FP was measured over the range of target protein concentrations. […]

Assay [2] addresses T2, b1b2 domain of neuropilin-1 (NRP-1), recombinant (UniProt O14786 273-586, limits assumed).
T2 construct: domain: b1b2 domain; also called NRP-1 b1b2; b1b2 domain of NRP-1
T2 sequence (looked up): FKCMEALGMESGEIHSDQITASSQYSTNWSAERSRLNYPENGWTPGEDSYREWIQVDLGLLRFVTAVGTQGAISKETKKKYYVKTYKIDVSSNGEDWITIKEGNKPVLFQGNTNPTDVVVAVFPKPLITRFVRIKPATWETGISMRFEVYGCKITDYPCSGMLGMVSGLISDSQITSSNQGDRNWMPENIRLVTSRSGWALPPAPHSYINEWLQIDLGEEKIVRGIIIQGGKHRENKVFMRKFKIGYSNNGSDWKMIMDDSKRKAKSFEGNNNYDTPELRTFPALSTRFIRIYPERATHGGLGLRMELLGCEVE
Put plainly: fluorescence polarization, recombinant b1b2 domain of NRP-1. The protocol: FIG. 8 is a graph showing specificity of TT1 binding. Specificity of TT1 was further evaluated by measuring the binding of FAM-TT1 to recombinant non-target protein, b1b2 domain of neuropilin-1 (NRP-1). The binding was studied by fluorescence polarization. […] Each data point presents average±S.D., n=4-6.
(§1) The assay was initially set up in 20 μl well volume in 384 well plate (Corning Life Sciences), and measurements were carried out using PheraStar FS plate reader (BMG LABTECH, Ortenberg, Germany) in quadruplicate. Peptide and protein stock solutions were diluted to desired concentration with assay buffer (50 mM BIS-TRIS pH 7.4, 0.05% Tween20, 1 mM DTT). FAM-labeled peptides were protected from light during the experiment to avoid photobleaching. Optimal concentration of fluorescein (FAM) labeled-peptides for the assay was determined by measuring the limit of detection (LOD), signal-to-background ratio (S/B), and stability of mP value over series of peptide concentrations. In the binding assay, the concentration of FAM-peptide was kept constant, and the FP was measured over the range of target protein concentrations. The peptide dissociation constant (KD) was obtained by fitting the binding curve into Michaelis-Menten kinetics in GraphPad Prism-software (GraphPad Software, Inc., CA, USA). […]
On the technique in general: Polarisation of emitted light reports the rotation of a fluorescent probe.

Assay [3] deals with T1, recombinant 6x-His-tagged p32 protein …. Put plainly: fluorescence polarization, FAM-TT1 constant, p32 titrated, in BIS-TRIS buffer. The protocol: FIG. 6 is a graph showing the effect of buffer solution on interaction of TT1 and p32. The binding affinity of FAM-labeled TT1 to p32 was studied in different assay buffers: in PBS, HEPES, and BIS-TRIS, respectively. The binding was measured by fluorescence polarization (FP) and observed as increased FP value. Binding constants (KD) were calculated by fitting the binding curves into Michaelis-Menten kinetics. Each data point presents average±S.D., n=4-6.
as §1, with “concentrations.” for “concentrations. The peptide dissociation constant (KD) was obtained by fitting the binding curve into Michaelis-Menten kinetics in GraphPad Prism-software (GraphPad Software, Inc., CA, USA).”

Bridges are numbered along the chain shown (N, C = ends). Where no end group is shown, it is not given here. FAM = 5(6)-carboxyfluorescein; Ahx = NCCCCCC(=O)O

We go through 2 molecules from patent US20180303898A1 (SANFORD BURNHAM PREBYS MEDICAL DISCOVERY INSTITUTE, published 2018).

Consider {FAM-Ahx}-CGNKRTRGC (disulfide 1-9 (inferred), also called FAM-LyP-1) [FAM-labeled LyP-1 peptide (CGNKRTRGC)], for which, in assay [1], the dissociation constant (Kd) is 23 µM.

B1: FAM-labeled TT1 peptide (CKRGARSTC) (peptide)
peptide: {FAM-Ahx}-CKRGARSTC
modifications: disulfide (positions not given here); not fully specified (bridges); also: cyclic peptide, ring type not given here
notes: Synthetic fluorescent peptide used as the probe in the fluorescence polarization assays; also called FAM-TT1; FAM-TT-1
As for B1, the binding result in assay [2] is listed as “no binding”. Also, the Kd in assay [3] stood at 2.3 µM.

A word on the Kd: it is the equilibrium constant for the complex coming apart.
